{"source": "patent US20120270234A1", "about": "“DDR2 PROTEIN WITH ACTIVATED KINASE ACTIVITY AND PREPARATION METHOD THEREOF” (KOREA INSTITUTE OF SCIENCE AND TECHNOLOGY, priority 2003, published 2012)", "molecules": {"B1": {"name": "p-GST-DDR2 CKD by Src: tyrosine phosphorylation-induced GST-DDR2 CKD obtained by co-expression with the c-Src protein in sf 9 cells (protein)", "chain": "MTVSLSLPSDSSMFNNNRSSSPSEQGSNSTYDRIFPLRPDYQEPSRLIRKLPEFAPGEEESGCSGVVKPVQPSGPEGVPHYAEADIVNLQGVTGGNTYSVPAVTMDLLSGKDVAVEEFPRKLLTFKEKLGEGQFGEVHLCEVEGMEKFKDKDFALDVSANQPVLVAVKMLRADANKNARNDFLKEIKIMSRLKDPNIIHLLSVCITDDPLCMITEYMENGDLNQFLSRHEPPNSSSSDVRTVSYTNLKFMATQIASGMKYLSSLNFVHRDLATRNCLVGKNYTIKIADFGMSRNLYSGDYYRIQGRAVLPIRWMSWESILLGKFTTASDVWAFGVTLWETFTFCQEQPYSQLSDEQVIENTGEFFRDQGRQTYLPQPAICPDSVYKLMLSCWRRDTKNRPSFQEIHLLLLQQGDE", "modifications": "left off: a dimerising Fc or GST", "notes": "tyrosine phosphorylation-induced GST-DDR2 CKD obtained by co-expression with the c-Src protein in sf 9 cells"}}, "key": {"[1]": {"test_system": "T1, fusion protein of glutathione S transferase and human DDR2 cytosolic tyrosine kinase domain (GST-DDR2 CKD), expressed alone in sf9 cells", "T1 sequence": "B1 chain"}, "shc protein": {"test_system": "shc protein", "test": "in vitro shc binding assay using HSC T6 cell lysate", "set-up": "species or system human", "source_text": "One of the characteristic features of tyrosine phosphorylated cytosolic domain of receptor tyrosine kinase is to recruit the signaling proteins such as shc protein. This complex formation between the cytosolic domain of receptor tyrosine kinase protein and signaling proteins such as shc is important for the cellular transmission of the activated receptor tyrosine kinase signal. It has been observed in HSC T6 liver stellate cells and fibroblast cells that shc, one of signaling protein containing PTB domain binds to activated DDR2 cytosolic domain. The present inventors examined whether the invented DDR2 cytosolic tyrosine kinase domain protein with induced tyrosine phosphorylation for example, by the method of co-expression with c-Src in sf 9 cells or with the mutation of tyrosine 740 to phenylalanine 740 can be used for in vitro shc binding assay. In FIG. 15, the purified GST-DDR2 cytosolic domain from sf 9 cells with and without Src coinfection were used for in vitro shc binding assay. Each protein was subject to autophosphorylation reaction at 30° C. for 15 min, and a mock-autophosphylation reaction as well where gamma-S-ATP was used instead of ATP in the reaction buffer before they were used for in vitro shc binding assay using HSC T6 cell lysate.\nThe purified GST-DDR2 CKD proteins without or with tyrosine phosphorylation by Src were subject to in vitro shc binding assay after autophosphorylation reaction or a mock-autophosphorylation reaction as described in materials and methods. The bound proteins on the glutathione bead were eluted by boiling in 1× lameli buffer. The presence of shc in the eluate was measured by western blotting using shc antibody and the accumulation of tyrosine phosphorylation at GST-DDR2 CKD proteins resulted from autophosphorylation was shown by western blotting using P-tyro antibody. The presence of an equal amount of GST-DDR2 CKD proteins in each eluate was confirmed by CBB staining. ‘Bead only’ means that no GST-DDR2 CKD protein was applied on glutathione bead as a control.\nThe same type of experiment was done as FIG. 15 using purified GST-DDR2 CKD phosphorylated by src and its mutant proteins of Y740F and Y736/740/741F.\nAs a source of shc protein, total lysate of HSC T6 cells was used. For the preparation of the lysate, 2×10^7 HSC T6 cells were harvested and lysed by sonication in 5 ml of lysis buffer consisting of 20 mM Tris-HCl (pH8.0), 0.1M NaCl, 5 mM DTT, 10 mM NaF, […], 0.02% IGE-PAL (Sigma) and a proteinase inhibitor cocktail pellet (Roche). The supernatant was obtained by centrifugation in 15,000 rpm for 10 min at 4° C. and used for the following shc binding assay. Various GST-DDR2 KD proteins bound to glutathione bead were obtained as described above. […]"}, "Histone H2B": {"test_system": "Histone H2B", "test": "tyrosine kinase activity using Histone H2B as substrate", "type": "biochemical", "conditions": "reciprocal plotting 1/V vs 1/[ATP]; FIG. 9, FIG. 10", "procedure": "The GST-DDR2 CKD was solely expressed or co-expressed with the c-Src protein at the ratio of 1:1 in insect cells; the respective obtained GST-DDR2 CKDs were purified; and the tyrosine kinase activities depending on the concentration of ATP were determined using the same amounts of the tyrosine phosphorylation-induced GST-DDR2 CKD (p-GST-DDR2 CKD by Src) which is obtained by co-expression with the c-Src protein in sf 9 cells and non-phosphorylated GST-DDR2 CKD which is obtained by solely expression in sf9 cells.\nAll measurements were done in triplicate.\nThe same amount of each protein as judged by CBB staining was used to measure its in vitro tyrosine kinase activity using histone H2B as a substrate as described in materials and methods and their tyrosine kinase activities were shown by autoradiography. Negative stands for a kinase reaction without kinase protein as a control.\nMeasurement of DDR2 tyrosine kinase activity towards heterologous peptide substrates was performed using 100 ng of the purified kinase protein in 20 ul of reaction mixture containing 20 mM Tris-HCl, pH 8.0, 5 mM MgCl2, 0.5 mM dithiothreitol, 0.01 mM ATP. […] The spotted filter was washed with 0.1M Tris-HCl (pH 8.0) five times for 10 min each and the radioactivity of each spot was visualized and quantitated using BAS image analyzer (Kodak)."}}, "data": [{"molecule": "full-length human c-Src tyrosine kinase", "values": [{"measurement": "level of tyrosine phosphorylation of GST-DDR2 CKD against the ratio of the two baculoviruses (western blot, phosphorylated tyrosine specific antibody)", "setting": "[1]", "result": "The tyrosine phosphorylation at the DDR2 cytosolic tyrosine kinase domain was meaningfully induced, when the DDR2 kinase expression virus and the c-Src protein expression virus are co-expressed even at the ratio of 19:1"}]}, {"molecule": "B1", "values": [{"measurement": "shc binding after in vitro autophosphorylation reaction", "setting": "shc protein; autophosphorylation at 30° C. for 15 min, FIG. 15, FIG. 16", "result": "significantly increased"}, {"measurement": "shc binding before in vitro autophosphorylation", "setting": "shc protein; mock-autophosphorylation with gamma-S-ATP, FIG. 15", "result": "some shc binding"}, {"measurement": "Km value for ATP compared with the non-phosphorylated control protein", "setting": "Histone H2B", "result": "decreased"}, {"measurement": "Vmax compared with the non-phosphorylated control protein", "setting": "Histone H2B", "result": "increased"}]}]}
